# According to patent US20060172935A1 (published 2006):
# B1: 125I-human PK2 (iodinated human prokineticin 2) (ligand)
# chain: AVITGACDKDSQCGGGMCCAVSIWVKSIRICTPMGKLGDSCHPLTRKVPFFGRRMHHTCPCLPGLACLRTSFNRFICLAQK
# modifications: radioiodinated with 125I (residue not stated for this assay)
# notes: also called iodinated PK2
# Experiments:
# [1] = biological target: PKR2 stably expressed in Chinese Hamster Ovary cells (CHO-PKR2); assay: cell-based or functional assay
# mouse PK2 receptor = biological target: T1, mouse PK2 receptor (mouse, UniProt Q8K458 1-381); assay: PK2 receptor binding assay with radioiodinated ligand (FIG. 11)
# T1 construct: G-protein coupled receptor; also called PKR2; mouse PKR2
# Source text: An exemplary assay for determining binding of detectably labeled PK2, PK1 or PK2/PK1 chimera to PK2 receptor or PK1 receptor is the radioligand filter binding assay described in Li et al. Molecular Pharmacology 59:692-698 (2001)). […] A variety of other low- and high-throughput assays suitable for detecting selective binding interactions between a receptor and a ligand are known in the art. Such assays include, for example, fluorescence correlation spectroscopy (FCS) and scintillation proximity assays (SPA) reviewed in Major, J. Receptor and Signal Transduction Res. 15:595-607 (1995); and in Sterrer et al., J. Receptor and Signal Transduction Res. 17:511-520 (1997)). Binding assays can be performed in any suitable assay format including, for example, cell preparations such as whole cells or membranes that contain PK2 receptor or PK1 receptor, or substantially purified PK2 receptor polypeptide or PK1 receptor, either in solution or bound to a solid support.
# T1 sequence (Q8K458 whole entry): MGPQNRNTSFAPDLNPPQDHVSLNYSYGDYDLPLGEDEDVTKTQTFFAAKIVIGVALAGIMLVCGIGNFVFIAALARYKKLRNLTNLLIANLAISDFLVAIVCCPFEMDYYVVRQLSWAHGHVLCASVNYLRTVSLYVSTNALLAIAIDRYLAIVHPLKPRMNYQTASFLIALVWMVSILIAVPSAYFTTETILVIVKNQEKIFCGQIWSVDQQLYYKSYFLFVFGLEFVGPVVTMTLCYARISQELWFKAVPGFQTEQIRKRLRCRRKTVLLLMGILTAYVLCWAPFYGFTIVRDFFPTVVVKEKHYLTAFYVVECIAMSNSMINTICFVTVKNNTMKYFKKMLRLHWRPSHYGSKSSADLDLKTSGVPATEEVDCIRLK
Molecule,"EC50, calcium mobilization [1]",fold stimulation of CLOCK:BMAL1-mediated transcription of the 2.8 kb PK2 promoter (luciferase) [1],Kd (mouse PK2 receptor)
purified recombinant mouse PK2 (from UniProt Q9QXU7 27-128) (ligand),7.3 nM,4 fold,–
B1,–,–,~1 nM
